For one experiment, the target named is OmpC (Escherichia coli) (UniProt P06996). As to the kind of experiment: FRET. The following applies: cited from earlier work.
The target in experiment [1] is T1, transmembrane domain of OmpA (tOmpA) (E. coli, UniProt P0A910 22-192).
T1 construct: 171-residue transmembrane (beta-barrel) domain of OmpA; Diluted from a denatured state in 8 M urea into the chaperone solution; PDB 1QJP, used for the simulations, is the same domain with mutated residues
T1 sequence (looked up): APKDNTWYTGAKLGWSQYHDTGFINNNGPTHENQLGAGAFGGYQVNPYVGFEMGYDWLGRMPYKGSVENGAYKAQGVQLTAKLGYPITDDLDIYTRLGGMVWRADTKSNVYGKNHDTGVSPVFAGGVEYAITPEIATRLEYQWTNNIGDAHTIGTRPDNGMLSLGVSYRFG
Kind of experiment: native MS; nano-ESI; proteins alone or pre-mixed 1:1; tOmpA diluted from 8 M urea into Skp or SurA (all 1 μM final, 0.2 M urea, 50 mM glycine–NaOH pH 9.5), 5 min at room temperature, then buffer exchange into 200 mM ammonium acetate pH 10. The settings on record: both partners purified.

The target in experiment [2] is Cys-tOmpA labeled with Alexa Fluor 488 (E. coli). Kind of experiment: MST; 100 nM Alexa Fluor 488-labeled Cys-tOmpA, SurA 100 μM–3 nM, 0.25 M urea, 50 mM glycine–NaOH pH 9.5; Monolith NT.115; fit to the Hill equation; apparent.
For experiment [3], the target named is T2, SurA (Escherichia coli), P0ABZ6.
T2 chain: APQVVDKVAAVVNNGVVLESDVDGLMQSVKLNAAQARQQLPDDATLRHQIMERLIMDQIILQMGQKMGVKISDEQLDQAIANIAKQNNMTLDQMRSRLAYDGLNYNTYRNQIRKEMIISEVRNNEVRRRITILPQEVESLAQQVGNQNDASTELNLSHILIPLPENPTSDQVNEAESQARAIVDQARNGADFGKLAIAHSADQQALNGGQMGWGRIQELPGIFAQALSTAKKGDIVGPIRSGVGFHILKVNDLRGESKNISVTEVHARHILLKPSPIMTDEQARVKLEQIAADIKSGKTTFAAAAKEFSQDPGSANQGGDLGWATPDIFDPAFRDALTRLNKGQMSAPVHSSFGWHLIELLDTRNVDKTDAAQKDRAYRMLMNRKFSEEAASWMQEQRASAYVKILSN
Kind of experiment: native MS; nano-ESI; proteins alone or pre-mixed 1:1; tOmpA diluted from 8 M urea into Skp or SurA (all 1 μM final, 0.2 M urea, 50 mM glycine–NaOH pH 9.5), 5 min at room temperature, then buffer exchange into 200 mM ammonium acetate pH 10. The settings on record: remark: other sources report otherwise.

A word on the stoichiometry N: it is the number of molecules, sites or subunits per partner or assembly.

Several values for one entry are separate records, joined by “and”; a condition that tells them apart may be missing. Equal entries are not always repeated.

Chain of OmpC (Escherichia coli) (P06996 22-367): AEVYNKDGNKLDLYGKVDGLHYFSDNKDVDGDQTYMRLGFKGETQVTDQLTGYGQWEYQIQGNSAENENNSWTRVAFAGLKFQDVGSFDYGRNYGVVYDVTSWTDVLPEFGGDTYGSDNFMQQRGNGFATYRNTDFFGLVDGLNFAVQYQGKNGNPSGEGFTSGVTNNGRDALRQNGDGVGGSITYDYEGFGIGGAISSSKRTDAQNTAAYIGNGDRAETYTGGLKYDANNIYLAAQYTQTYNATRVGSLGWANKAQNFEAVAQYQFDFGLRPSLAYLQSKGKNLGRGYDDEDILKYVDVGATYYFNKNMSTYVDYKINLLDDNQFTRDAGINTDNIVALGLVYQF

For SurA (from UniProt P0ABZ6), in the experiment with OmpC (Escherichia coli), the Kd was 106 nM.

B1: Skp (natural protein, Escherichia coli, UniProt P0AEU7 21-161, looked up)
chain: ADKIAIVNMGSLFQQVAQKTGVSNTLENEFKGRASELQRMETDLQAKMKKLQSMKAGSDRTKLEKDVMAQRQTFAQKAQAFEQDRARRSNEERGKLVTRIQTAVKSVANSQDIDLVVDANAVAYNSSDVKDITADVLKQVK
notes: Skp, periplasmic chaperone of Escherichia coli; Probably the mature protein without its signal peptide (surmised); also called Escherichia coli periplasmic chaperone Skp
B1: the “stoichiometry N” value in experiment [1] turned out to be 1.

B2: SurA (natural protein, Escherichia coli, UniProt P0ABZ6 21-428, looked up)
chain: T2 chain
notes: SurA, periplasmic chaperone of Escherichia coli; Probably the mature protein without its signal peptide (surmised); also called Escherichia coli periplasmic chaperone SurA
With B2, the Kd in experiment [2] stood at 1800 nM. The “stoichiometry N” value in experiment [1] was 1 and 2; in experiment [3] it was 2.

These data come from article PMC5692476, “Effects of Periplasmic Chaperones and Membrane Thickness on BamA-Catalyzed Outer-Membrane Protein Folding” (Journal of Molecular Biology, 2017).
